Data taken from US20090258001A1.

How the values were obtained:
[1] = biological target: CD3 (CD3/TCR complex) on CD4+ and CD8+ T cells of patients (human) (UniProt P07766); experiment: flow cytometry of CD4+ T cells, free CD3 sites by biotinylated TRX4; Example 3 Cohort 3, 0.3 mg
[2] = biological target: CD3 (CD3/TCR complex) on CD4+ and CD8+ T cells of patients (human) (UniProt P07766); experiment: flow cytometry of CD4+ T cells, free CD3 sites by biotinylated TRX4; Example 4 Cohort A*, 0.15 mg
[3] = biological target: CD3 (CD3/TCR complex) on CD4+ and CD8+ T cells of patients (human) (UniProt P07766); experiment: flow cytometry of CD4+ T cells, anti-human IgG; Example 3 Cohort 2 (0.5 mg x3), end of infusion
[4] = biological target: CD3 (CD3/TCR complex) on CD4+ and CD8+ T cells of patients (human) (UniProt P07766); experiment: flow cytometry of CD4+ T cells, free CD3 sites by biotinylated TRX4; Example 4 Cohort C, 0.2 mg
[5] = biological target: CD3 (CD3/TCR complex) on CD4+ and CD8+ T cells of patients (human) (UniProt P07766); experiment: flow cytometry of CD4+ T cells, free CD3 sites by biotinylated TRX4; Example 4 Cohort A, 0.1 mg
[6] = biological target: CD3 (CD3/TCR complex) on CD4+ and CD8+ T cells of patients (human) (UniProt P07766); experiment: flow cytometry of CD4+ T cells, anti-human IgG; Example 4 Cohort C, about 24 hours after 1.0 mg infusion
[7] = biological target: CD3 (CD3/TCR complex) on CD4+ and CD8+ T cells of patients (human) (UniProt P07766); experiment: flow cytometry of CD4+ T cells, anti-human IgG; Example 4 Cohort C, end of 0.3 mg infusion
[8] = biological target: CD3 (CD3/TCR complex) on CD4+ and CD8+ T cells of patients (human) (UniProt P07766); experiment: flow cytometry of CD4+ T cells, free CD3 sites by biotinylated TRX4; Example 4 Cohort A, day after last infusion
[9] = biological target: CD3 (CD3/TCR complex) on CD4+ and CD8+ T cells of patients (human) (UniProt P07766); experiment: flow cytometry of CD4+ T cells, free CD3 sites by biotinylated TRX4; Example 4 Cohort C, 0.1 mg
[10] = biological target: CD3 (CD3/TCR complex) on CD4+ and CD8+ T cells of patients (human) (UniProt P07766); experiment: flow cytometry of CD4+ T cells, free CD3 sites by biotinylated TRX4; Example 4 Cohort A, 0.2 mg
[11] = biological target: CD3 (CD3/TCR complex) on CD4+ and CD8+ T cells of patients (human) (UniProt P07766); experiment: flow cytometry, free sites by biotinylated TRX4; Example 4, 4-dose cohorts, 24 hours after infusion
[12] = biological target: CD3 (CD3/TCR complex) on CD4+ and CD8+ T cells of patients (human) (UniProt P07766); experiment: flow cytometry of CD4+ T cells, anti-human IgG; Example 4 Cohort A, end of 0.2 mg infusion
[13] = biological target: CD3 (CD3/TCR complex) on CD4+ and CD8+ T cells of patients (human) (UniProt P07766); experiment: flow cytometry of CD4+ T cells, free CD3 sites by biotinylated TRX4; Example 3 Cohort 2, 2 hours after end of infusion
[14] = biological target: CD3 (CD3/TCR complex) on CD4+ and CD8+ T cells of patients (human) (UniProt P07766); experiment: flow cytometry of CD4+ T cells, anti-human IgG; Example 4 Cohort A, 2 hours after 0.5 mg infusion
[15] = biological target: CD3 (CD3/TCR complex) on CD4+ and CD8+ T cells of patients (human) (UniProt P07766); experiment: flow cytometry of CD4+ T cells, anti-human IgG; Example 4 Cohort A, end of 0.3 mg infusion
[16] = biological target: CD3 (CD3/TCR complex) on CD4+ and CD8+ T cells of patients (human) (UniProt P07766); experiment: flow cytometry of CD4+ T cells, free CD3 sites by biotinylated TRX4; Example 3 Cohort 2, second 0.5 mg dose
[17] = biological target: CD3 (CD3/TCR complex) on CD4+ and CD8+ T cells of patients (human) (UniProt P07766); experiment: flow cytometry of CD4+ T cells, free CD3 sites by biotinylated TRX4; Example 3 Cohort 3, 0.1 mg
[18] = biological target: CD3 (CD3/TCR complex) on CD4+ and CD8+ T cells of patients (human) (UniProt P07766); experiment: flow cytometry of CD4+ T cells, free CD3 sites by biotinylated TRX4; Example 4 Cohort A*, 0.1 mg
[19] = biological target: CD3 (CD3/TCR complex) on CD4+ and CD8+ T cells of patients (human) (UniProt P07766); experiment: flow cytometry of CD4+ T cells, free CD3 sites by biotinylated TRX4; Example 4 Cohort B, 0.75 mg
[20] = biological target: CD3 (CD3/TCR complex) on CD4+ and CD8+ T cells of patients (human) (UniProt P07766); experiment: flow cytometry of CD4+ T cells, anti-human IgG; Example 4 Cohort A*, end of 0.1 mg infusion
[21] = biological target: CD3 (CD3/TCR complex) on CD4+ and CD8+ T cells of patients (human) (UniProt P07766); experiment: flow cytometry of CD4+ T cells, anti-human IgG; Example 4 Cohort C, end of 1.0 mg infusion
[22] = biological target: CD3 (CD3/TCR complex) on CD4+ and CD8+ T cells of patients (human) (UniProt P07766); experiment: flow cytometry of CD4+ T cells, anti-human IgG; Example 4 Cohort B, end of 0.3 mg infusion
[23] = biological target: CD3 (CD3/TCR complex) on CD4+ and CD8+ T cells of patients (human) (UniProt P07766); experiment: flow cytometry of CD4+ T cells, free CD3 sites by biotinylated TRX4; Example 4 Cohort B, 0.2 mg
[24] = biological target: CD3 (CD3/TCR complex) on CD4+ and CD8+ T cells of patients (human) (UniProt P07766)
[25] = biological target: CD3 (CD3/TCR complex) on CD4+ and CD8+ T cells of patients (human) (UniProt P07766); experiment: flow cytometry, free sites by biotinylated TRX4; Example 4, 4-dose cohorts, after doses of 0.5 mg and higher

Sequence of UniProt P07766 (P07766 23-207, chain 1 of 3): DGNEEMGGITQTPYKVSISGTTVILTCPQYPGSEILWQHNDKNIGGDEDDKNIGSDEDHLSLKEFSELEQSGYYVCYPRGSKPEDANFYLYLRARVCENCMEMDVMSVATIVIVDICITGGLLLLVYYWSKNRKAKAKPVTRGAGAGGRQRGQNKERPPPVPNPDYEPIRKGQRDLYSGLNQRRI
Sequence of UniProt P07766 (chain, as listed by the source, chain 2 of 3): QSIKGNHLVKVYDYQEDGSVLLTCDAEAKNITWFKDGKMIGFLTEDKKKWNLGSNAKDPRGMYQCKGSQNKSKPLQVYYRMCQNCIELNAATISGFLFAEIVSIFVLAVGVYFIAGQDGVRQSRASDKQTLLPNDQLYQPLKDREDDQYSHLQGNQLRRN
Sequence of UniProt P07766 (chain, as listed by the source, chain 3 of 3): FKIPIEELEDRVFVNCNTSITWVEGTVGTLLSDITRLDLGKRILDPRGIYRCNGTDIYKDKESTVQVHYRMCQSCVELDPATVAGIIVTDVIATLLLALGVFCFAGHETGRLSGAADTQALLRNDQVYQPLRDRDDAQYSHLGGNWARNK

Substance: TRX4 antibody
- percent saturation of CD3 [1]: 70%
- percent saturation of CD3 [2]: 80%
- cell-bound TRX4 (MESF of anti-human IgG) [3]: 600000 MESF units
- percent saturation of CD3 [4]: 95%
- percent saturation of CD3 [5]: 40%
- cell-bound TRX4 (MESF of anti-human IgG) [6]: 200000 MESF units
- cell-bound TRX4 (MESF of anti-human IgG) [7]: 600000 MESF units
- percent saturation of CD3 [8]: 35%
- percent saturation of CD3 [9]: 50%
- percent saturation of CD3 [10]: 70%
- percent saturation of CD3 [11]: 40%
- cell-bound TRX4 (MESF of anti-human IgG) [12]: 375000 MESF units
- percent saturation of CD3 [13]: 55%
- cell-bound TRX4 (MESF of anti-human IgG) [14]: 400000 MESF units
- cell-bound TRX4 (MESF of anti-human IgG) [15]: 600000 MESF units
- percent saturation of CD3 [16]: 80%
- percent saturation of CD3 [17]: 45%
- percent saturation of CD3 [18]: 70%
- percent saturation of CD3 [19]: 95%
- cell-bound TRX4 (MESF of anti-human IgG) [20]: 700000 MESF units
- cell-bound TRX4 (MESF of anti-human IgG) [21]: 750000 MESF units
- cell-bound TRX4 (MESF of anti-human IgG) [22]: 420000 MESF units
- percent saturation of CD3 [23]: 60%
- CD3/TCR modulation (decrease in MESF of TCR αβ on T cells, stained with non-competing antibody BMA031) [24]: > 80%
- percent saturation of CD3 [25]: > 90%
